A short description of data set [1]: Solution clarity of m-cresol-preserved Val^8-GLP-1 solution with other surfactants, Example 4. Conditions: m-cresol about 3 mg/ml; for clarity of Val^8-GLP-1 solution with added surfactant: 10 μl surfactant in 500 μL of 1 mg/ml peptide, ambient temperature about 3 hours; for solution appearance: without any additives. Format: physicochemical. As to the method: A formulation of the invention was prepared by dissolving Val^8-GLP-1(7-37)OH at 1 mg/ml in an aqueous solution containing 16 mg/ml glycerin and 10 mM sodium tribasic phosphate. The solution was adjusted to about pH 8.0 using 2N HCl.
(§1) The preservative m-cresol was prepared at a concentration of 100 mg/ml in absolute ethanol.
Various formulation excipients listed herein were added to 500 μL aliquots of the Val^8-GLP-1(7-37)OH solution in 3-ml glass vials. After stirring for about 45 minutes at ambient temperature, 15.8 μl of a 100 mg/ml m-cresol solution in absolute ethanol was added to give a m-cresol concentration of about 3 mg/ml.
Without any additives, the Val^8-GLP-1 solution becomes hazy at both ambient temperature and at 4° C.

A short description of data set [2]: Circular dichroism of Val^8-GLP-1 / GLP-1 secondary structure with bound DSS. Format: physicochemical. An excerpt:
A slightly larger form of Val^8-GLP-1 with DSS molecule(s) bound to it was observed on size-exclusion chromatography (SEC) and the altered secondary structure was noted by circular dichroism experiments (CD).
On the technique in general: CD spectra are sensitive to the conformation of chiral molecules.

Data set [3] in a line: Storage stability (solution clarity, HPLC purity) of m-cresol-preserved Val^8-GLP-1(7-37)OH formulations with DSS, Example 1. Format: physicochemical. Conditions: for time solution remained clear: 4° C.; for HPLC purity after storage: 6 weeks at 4° C. As to the method:
A formulation of the invention was prepared by dissolving Val^8-GLP-1(7-37)OH at 1 mg/ml in an aqueous solution containing 16 mg/ml glycerin and 10 mM sodium tribasic phosphate. The solution was adjusted to about pH 8.1 using 1N HCl.
as §1
Sodium docusate (DSS) was prepared at a concentration of 20 mg/ml in water with gentle warming on a hot plate.
To each of 500 μL aliquots of the Val^8-GLP-1(7-37)OH solution in 3-ml glass vials were added 0, 3.3, 6.6 or 16.5 μL of the DSS solution followed by 15.8 μL of the preservative m-cresol solution. After gentle mixing of the components in the vials by hand swirling the pH of each clear solution was-adjusted to pH 7.8. Replicate samples were incubated at 4° C., ambient temperature, and 37° C. Within 4 hours at ambient temperature, the samples containing 0 or 3.3 μL of the DSS solution had become hazy due to peptide denaturation.
After incubation for 16 hours at 37° C., all four types of samples were clear. The solutions were then incubated at 4° C. Again, the solutions containing 0 or 3.3 μL of the DSS solutions became, and remained, hazy.
The solutions containing 6.6 μL or 16.5 μL of the DSS solution, which correspond to 2:1 and 10:1 molar ratios DSS to Val^8-GLP-1(7-37)OH, respectively, remained clear at 4° C. for at least 6 weeks.

Data set [4] can be described thus: Storage stability (solution clarity, HPLC purity) of preserved Val^8-GLP-1(7-37)OH formulation with DSS 2:1, Example 2. Format: physicochemical. To be noted: for solution appearance: DSS 2:1, m-cresol about 3.15 mg/ml; for HPLC purity after storage: DSS 2:1, m-cresol. Here is the method:
A formulation of the invention was prepared by dissolving Val^8-GLP-1(7-37)OH at about 1.0 mg/ml in an aqueous solution containing 16 mg/ml glycerin and 10 mM sodium tribasic phosphate. The solution was adjusted to about pH 8.0 using 5N HCl. The solution was then filtered through 0.2μ and 0.02μ filters. The peptide concentration was quantified by ultraviolet (UV) analysis at 280 nm.
6.5 ml of the Val^8-GLP-1 solution was added to 1.62 mg of solid DSS, which had been dried from a 100 mg/ml solution in absolute ethanol, to give a 2:1 molar ratio of DSS to Val^8-GLP-1. After gently stirring 15 minutes at ambient temperature the solution was added to 20.5 mg of m-cresol, which had been dried from a 100 mg/ml solution in absolute ethanol, to give a m-cresol concentration of about 3.15 mg/ml. After stirring 15 minutes at ambient temperature, the solution was adjusted to about pH 7.7 and passed through a 0.2μ filter. Portions of this formulation were stored at 4° C. and at ambient temperature.
After 18 weeks, the formulations maintained at 4° C. and at ambient temperature were examined. Both solutions were clear.

The test system of data set [5] is beagle dogs clamped at an elevated glycemic level (200 mg/dl). As to the kind of experiment: Hyperglycemic clamp, glucose infusion rate after subcutaneous injection. Format: in vivo. To be noted: formulation containing DSS. As to the method:
A portion of the formulation from Example 2 was injected subcutaneously into beagle dogs that were clamped at an elevated glycemic level (200 mg/dl). 3 nmoles/kg of Val^8-GLP-1 were injected into each animal. Glucose infusion rates needed to maintain hyperglycemia were measured for 2.5 hours after the injections and compared to injections of a vehicle control solution.

Tween-40: the “clarity of Val^8-GLP-1 solution with added surfactant” value in data set [1] was “preserved solution clarity”.
For the substance “GLP-1(7-37) (HAEGTFTSDVSSYLEGEAAKEFIAWLVKGRG; listed as Homo sapiens)”, the “reversion to alpha-helix conformation” value in data set [2] (GLP-1-DSS mixture, 2-day dialysis, CD study) is on record as “did not revert”.
Regarding Val^8-GLP-1(7-37)OH, the solution appearance entry is recorded as “hazy” in data set [3] (0 μL DSS solution, incubated at 4° C. after 16 hours at 37° C.); “hazy” in data set [3] (0 μL DSS solution, m-cresol, pH 7.8, within 4 hours at ambient temperature); “hazy” in data set [3] (3.3 μL DSS solution, incubated at 4° C. after 16 hours at 37° C.); “hazy” in data set [3] (3.3 μL DSS solution, m-cresol, pH 7.8, within 4 hours at ambient temperature); “clear” in data set [3] (all four sample types (0, 3.3, 6.6, 16.5 μL DSS solution), after incubation for 16 hours at 37° C.); “clear” in data set [4] (pH about 7.7, 18 weeks at 4° C.). For the same substance, the solution appearance result in data set [4] (pH about 7.7, 18 weeks at ambient temperature) is reported as “clear”; in data set [1] (4° C.), “hazy”; in data set [1] (ambient temperature) it was “hazy”. The “time solution remained clear” value in data set [3] (6.6 μL DSS solution (2:1 molar ratio DSS to peptide)) and in data set [3] (16.5 μL DSS solution (10:1 molar ratio DSS to peptide)) was “at least 6 weeks” each time. Further, the “HPLC purity after storage” value in data set [3] (6.6 μL DSS solution (2:1 molar ratio)) was 98.3%; in data set [3] (16.5 μL DSS solution (10:1 molar ratio)), 97.2%; in data set [4] (18 weeks at 4° C.), 98.3%; in data set [4] (18 weeks at ambient temperature), 90.8%. Moreover, the “solution stability on addition of DSS” value in data set [3] (DSS 2:1 molar vs. peptide, isotonic, pH 7.8, m-cresol) is “dramatically improved”. For the same substance, the “insulinotropic-like activity versus Val^8-GLP-1 in phosphate buffer solution (PBS formulation)” value in data set [5] was “comparable in potency”. Besides, the “secondary structure upon binding of DSS” value in data set [2] (circular dichroism) is on record as “converted from mostly alpha-helix to mostly a beta sheet”.
On to Tween-80, for which the “clarity of Val^8-GLP-1 solution with added surfactant” value in data set [1] is reported as “preserved solution clarity”.

The values are drawn from patent US6358924B1, “GLP-1 formulations” (Eli Lilly and Company, priority 1997, dated 2002).
